This is an account of results in patent US7691628, “Use of Rev-erb family of receptors in screening” (Merck Patent GmbH).

Common to all, as to conditions: tags: pSG5-hRev-erbα, TnT T7 rabbit reticulocyte lysate; label: 32P
For data set [1], the target named is T1, Rev-erb alpha (NR1D1) (Homo sapiens, UniProt P20393 P20393:1-614).
T1 sequence: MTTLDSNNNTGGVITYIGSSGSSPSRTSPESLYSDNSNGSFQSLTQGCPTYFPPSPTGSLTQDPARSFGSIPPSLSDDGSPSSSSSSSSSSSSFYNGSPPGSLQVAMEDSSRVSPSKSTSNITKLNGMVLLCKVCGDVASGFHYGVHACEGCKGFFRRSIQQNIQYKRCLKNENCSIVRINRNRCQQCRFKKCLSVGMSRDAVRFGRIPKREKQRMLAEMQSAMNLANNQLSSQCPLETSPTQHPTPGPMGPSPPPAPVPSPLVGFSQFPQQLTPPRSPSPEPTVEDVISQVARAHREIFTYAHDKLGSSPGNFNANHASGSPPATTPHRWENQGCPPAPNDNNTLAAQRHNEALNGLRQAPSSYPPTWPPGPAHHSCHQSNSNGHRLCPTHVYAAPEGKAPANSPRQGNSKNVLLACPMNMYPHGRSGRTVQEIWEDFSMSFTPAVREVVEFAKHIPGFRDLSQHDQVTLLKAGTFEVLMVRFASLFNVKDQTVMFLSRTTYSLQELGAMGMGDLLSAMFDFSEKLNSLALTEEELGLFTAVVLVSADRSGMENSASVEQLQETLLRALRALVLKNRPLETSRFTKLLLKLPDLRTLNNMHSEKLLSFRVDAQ
Kind of data set: EMSA; no significant retardation. On the technique in general: A gel shift assay detects complexes by their altered migration in electrophoresis.

Data set [2] deals with T1, Rev-erb alpha (NR1D1). Kind of data set: EMSA; data not illustrated.
Data set [3] deals with T1, Rev-erb alpha (NR1D1). Kind of data set: EMSA; two complexes, monomer and dimer; 10 mM Hepes, 80 mM KCl, polydIdC.

B1: C3P-DR2 (-104/-72) (dsDNA)
DNA 1: GATCCTCATCTCCACTGGTCAGCAGGTGACCTTTGC
DNA 2: GATCGGCAAAGGTCACCTGCTGACCAGTGGAGATGAG
For the molecule B1, the binding result with Rev-erb alpha (NR1D1) [1] is “no binding”.

B2: HCIII-TaTaKO (dsDNA)
DNA 1: GATCGATATAAAACAGGCAGGAACCCTC
DNA 2: GATCGAGGGTTCCTGCCTGTTTTATATC
Take B2: the binding result with Rev-erb alpha (NR1D1) [2] is listed as “no binding”.

B3: Rev-DR2 (dsDNA)
DNA 1: GATCCGGAAAAGTGTGTCACTGGGGCACGA
DNA 2: GATCTCGTGCCCCAGTGACACACTTTTCCG
In the case of B3, in the data set with Rev-erb alpha (NR1D1) [3], the binding result is recorded as “binds”.
